Results published in article PMC2997714 (Developmental cell, 2009).
Several values for one entry are separate records, joined by “and”; a condition that tells them apart may be missing. Identical values can stand only once.

Target: the molecule itself
Experiment: cross-linking

B1: recombinant His-klp9p (natural protein, S. pombe (fission yeast), UniProt Q1MTQ7 1-633, looked up)
chain: MIQIFLRVKKAQPSSDASNKYGFLTVLNDYEILLESPEDSHAYRVSKSKTLEKASFTKVFPPSCTQLDVFSTICAPLIADSLVNMNDTLLFTLGVSGAGKTYTLFGPSDRPGVAFLALDALFYAIKGREASPQTVEFLRSQLEKCKIVEASKFLRGEAPLDIKVPNTEYYASHFPKIEEKNYQYAIYLSFAEIYNDRIFDLLEKASFFGHRHALSLKKSSTSDKKSIAGIQKVFVSNTTEAYKLIQKVLQLRKSTSTKSNSVSSRSHLIMSIELFKVCTKSNKFESCQIDLVDLAGSERTRSAETSGLLLREGASINRSLLTLGQCLEALRRKHEGKQHIIPFRQSKLTELLFHSGHLSGLAGINMLVNIDPFGSFDENAQVMRYSANAREILPPPLNENSGSQSPSHSLLQKSKNTSSTKALTSHLEQLQQENQQLRMLLADADSEMMNLEYEIRQQMTREMEERVSEVERTFLTKLLEESAQGIEYTDQKLEKMGGWMKKLQDENSEKTETIAQLEQIIEELHEELRSLEEESIKESSATQQNENQHKRSSRKLLYEDKQAIQEAHTINTKRKLWPQSTLIQAPNSDDEENVPSPSPKKKVVSPIKPLSPSRRPPLTSLYSGTTDIDINEL
With B1 the “stoichiometry N” value was 2 and 4.
